Data taken from patent US20110300229A1, “TREATING OR PREVENTING ROTAVIRUS INFECTION” (FONTERRA CO-OPERATIVE GROUP LIMITED, priority 2007, published 2011).
Marks after values point to notes of the source that are not given here.

How the values were obtained:
human Wa rotavirus = details: cited from earlier work
[1] = system: human rotavirus strain Wa; experiment: Rotavirus infection assay in HT29 cells (crystal violet, % uninfected cells); type: cell-based
Experimental: The HT29 cell line was used to propagate the human rotavirus strain Wa (neuraminidase resistant) in the presence of 1 μg/ml trypsin in Dulbecco's minimal essential medium (DMEM) supplemented with 10% foetal calf serum and penicillin/streptomycin (100 μg/ml/100 units/ml). Rotavirus was harvested by freeze thawing twice, spun at 750 g to remove cell debris and stored at −80° C. The rotavirus was assayed and found to contain […] plaque forming units (pfu)/ml.
The infection assay used was based on a number of published assays (Scott et al 1979; Smith et al 1979; Guarino et al 1996; Superb et al 2001). Confluent HT29 cells grown in DMEM (seeded at 3×10^5/ml in 96 well plates) were washed twice in sterile PBS. Doubling dilutions of each of the products to be screened (initial concentration 5 mg/ml) were made in the plate in 50 μl volumes of DMEM. Virus was added (10^4 pfu/well) to all wells except the cells only control and plates were then incubated for two hours in 5% CO2 at 37° C. Other controls included virus plus cells, lipids only, pure GM3 and pure GD3. Following the two-hour incubation trypsin was added to all the wells containing virus at a concentration of 2 μg/ml—this step cleaves VP4 to polypeptides VP8 and VP5 and is needed for the virion to penetrate into the cells' interior. Plates were incubated at 37° C. in 5% CO2 for seven days and were checked daily for cytopathic effect in the virus only control wells. Media was removed and plates washed in sterile PBS, air-dried and fixed with methanol for one minute. Plates were air dried and then stained with 100 μl/well of 1% crystal violet (351884W, BDH, England) for five minutes. Plates were washed four times with sterile water to remove excess stain. 100 μl of acetic acid per well was added to solubilise the stain and absorbance was read at a wavelength of 595 nm in a Biorad ELISA plate reader. Each sample was assayed on a minimum of three separate occasions and the percentage of uninfected cells calculated.
Statistical analysis was performed using an unpaired Student t test (InStat for MacIntosh) to compare the effect of the lipid products derived from bovine milk with the virus only control at the lowest dilution of the product.

B1: bovine lactoferrin: bovine milk protein, result cited from Kvistgaard et al, 2004 (protein, UniProt P24627 20-708, looked up)
Lactotransferrin: APRKNVRWCTISQPEWFKCRRWQWRMKKLGAPSITCVRRAFALECIRAIAEKKADAVTLDGGMVFEAGRDPYKLRPVAAEIYGTKESPQTHYYAVAVVKKGSNFQLDQLQGRKSCHTGLGRSAGWIIPMGILRPYLSWTESLEPLQGAVAKFFSASCVPCIDRQAYPNLCQLCKGEGENQCACSSREPYFGYSGAFKCLQDGAGDVAFVKETTVFENLPEKADRDQYELLCLNNSRAPVDAFKECHLAQVPSHAVVARSVDGKEDLIWKLLSKAQEKFGKNKSRSFQLFGSPPGQRDLLFKDSALGFLRIPSKVDSALYLGSRYLTTLKNLRETAEEVKARYTRVVWCAVGPEEQKKCQQWSQQSGQNVTCATASTTDDCIVLVLKGEADALNLDGGYIYTAGKCGLVPVLAENRKSSKHSSLDCVLRPTEGYLAVAVVKKANEGLTWNSLKDKKSCHTAVDRTAGWNIPMGLIVNQTGSCAFDEFFSQSCAPGADPKSRLCALCAGDDQGLDKCVPNSKEKYYGYTGAFRCLAEDVGDVAFVKNDTVWENTNGESTADWAKNLNREDFRLLCLDGTRKPVTEAQSCHLAVAPNHAVVSRSDRAAHVKQVLLHQQALFGKNGKNCPDKFCLFKSETKNLLFNDNTECLAKLGGRPTYEEYLGTEYVTAIANLKKCSTSPLLEACAFLTR
prevention of human Wa rotavirus infection in vitro (human Wa rotavirus): could not prevent

B2: bovine lactadherin: bovine milk fat globule membrane glycoprotein, cited from Kvistgaard et al, 2004 (protein, UniProt Q95114 19-427, looked up)
Lactadherin: ASGDFCDSSLCLHGGTCLLNEDRTPPFYCLCPEGFTGLLCNETEHGPCFPNPCHNDAECQVTDDSHRGDVFIQYICKCPLGYVGIHCETTCTSPLGMQTGAIADSQISASSMHLGFMGLQRWAPELARLHQTGIVNAWTSGNYDKNPWIQVNLMRKMWVTGVVTQGASRAGSAEYLKTFKVAYSTDGRQFQFIQVAGRSGDKIFIGNVNNSGLKINLFDTPLETQYVRLVPIICHRGCTLRFELLGCELNGCTEPLGLKDNTIPNKQITASSYYKTWGLSAFSWFPYYARLDNQGKFNAWTAQTNSASEWLQIDLGSQKRVTGIITQGARDFGHIQYVAAYRVAYGDDGVTWTEYKDPGASESKIFPGNMDNNSHKKNIFETPFQARFVRIQPVAWHNRITLRVELLGC
prevention of human Wa rotavirus infection in vitro (human Wa rotavirus): could not prevent

B3: bovine MUC1 mucin: bovine milk mucin, cited from Kvistgaard et al, 2004 (protein, UniProt Q8WML4 23-580, looked up)
Mucin-1: NVPTLTTSDSINPRRTTPVSTTQSSPTSSPTKETSWSTTTTLLTASSPAPSPAASPGHDGASTPTSSPAPSPAASPGHDGASTPTSSPAPSPAASPGHDGASTPTSSPAPSPAASPGHDGASTPTSSPAPSPAASPGHNGTSSPTGSPAPSPAASPGHDGASTPTSSPAPSPAASPGHNGTSSPTGSPAPSPAASPGHDGASTPTSSPAPSPAASPGHNGTSSPTGSPAPSPTASPGHDSAPSLTSSPAPSPTASPGQHGASSPTSSDTSSMTTRSMSSSMVTSAHKGTSSRATMTPVSKGTPSSVPSSETAPTAASHITRTAASSPSIALSTSSNPKTSQQLSVRVSLYFLSFRITNLQFNSSLENPQTSYYQELQRSIWGLILQIYKQRDFLGLSEIKFRPGSVVVELTLAFREGTTAEWVKAQFSQLEAHAASYNLTISGVSVYSAPFPSSAQAGSGVPGWGIALLVLVCVLVALAIIYLIALVVCQCGRKKCEQLDVFPTLDAYHPMSEYSTYHTHGRYVPPGSTKRSPYEEVSAGNGGSNLSYTNLAATSANL
prevention of human Wa rotavirus infection in vitro (human Wa rotavirus): could not prevent

B4: Lactoferrin: lactoferrin provided by Fonterra Co-operative Group Limited; comparative material (protein, UniProt P24627 20-708, looked up)
Lactotransferrin: B1 Lactotransferrin
Percentage of HT29 cells uninfected by rotavirus ([1]; 0.3125 mg/ml): 60 +/− 8 ** % | Percentage of HT29 cells uninfected by rotavirus ([1]; 0.625 mg/ml): 65 +/− 8 *** % | Percentage of HT29 cells uninfected by rotavirus ([1]; 1.25 mg/ml): 73 +/− 12 *** % | Percentage of HT29 cells uninfected by rotavirus ([1]; 2.5 mg/ml): 87 +/− 4 *** % | Percentage of HT29 cells uninfected by rotavirus ([1]; 5 mg/ml): 67 +/− 4 *** %
